{"source": "patent US20210388087A1", "about": "(Chugai, published 2021)", "binders": {"B1": {"name": "GLS3000 K50S (antibody, name in Kabat numbering, V domains shown)", "VH": "QVQLVESGGGVVQPGRSLRLSCAASGFTFSNAWMHWVRQAPGKGLEWVAQIKAKSNNYATYYAESVKGRFTISRDDSKNSLYLQMNSLKTEDTAVYYCRYVHYGAYYGVDAWGQGTTVTVSS", "VL": "DIVMTQSPLSLPVTPGEPASISCRSSQSLVHSNRNTYLHWYQQKPGQAPRLLIYSVSNRFSGVPDRFSGSGSGTDFTLKISRVEAEDVGVYYCGQGTQVPYTFGQGTKLEIK", "notes": "one-arm IgG as m2"}, "B2": {"name": "GLS3000 N28A (antibody, name in Kabat numbering, V domains shown)", "VH": "B1 VH", "VL": "B1 VL with N33A, S55K", "notes": "one-arm IgG as m2"}, "B3": {"name": "GLS3000 L27bV (antibody, name in Kabat numbering, V domains shown)", "VH": "B1 VH", "VL": "B1 VL with L29V, S55K", "notes": "one-arm IgG as m2"}, "B4": {"name": "GLS3000 N28D (antibody, name in Kabat numbering, V domains shown)", "VH": "B1 VH", "VL": "B1 VL with N33D, S55K", "notes": "one-arm IgG as m2"}, "B5": {"name": "GLS3000 L33V (antibody, name in Kabat numbering, V domains shown)", "VH": "B1 VH", "VL": "B1 VL with L38V, S55K", "notes": "one-arm IgG as m2"}, "B6": {"name": "GLS3000 L27bF (antibody, name in Kabat numbering, V domains shown)", "VH": "B1 VH", "VL": "B1 VL with L29F, S55K", "notes": "one-arm IgG as m2"}, "B7": {"name": "GLS3000 N28G (antibody, name in Kabat numbering, V domains shown)", "VH": "B1 VH", "VL": "B1 VL with N33G, S55K", "notes": "one-arm IgG as m2"}, "B8": {"name": "GLS3000 L33E (antibody, name in Kabat numbering, V domains shown)", "VH": "B1 VH", "VL": "B1 VL with L38E, S55K", "notes": "one-arm IgG as m2"}, "B9": {"name": "GLS3000 N28E (antibody, name in Kabat numbering, V domains shown)", "VH": "B1 VH", "VL": "B1 VL with N33E, S55K", "notes": "one-arm IgG as m2"}, "B10": {"name": "GLS3000 K50Y (antibody, name in Kabat numbering, V domains shown)", "VH": "B1 VH", "VL": "B1 VL with S55Y", "notes": "one-arm IgG as m2"}, "B11": {"name": "GLS3000 L27bP (antibody, name in Kabat numbering, V domains shown)", "VH": "B1 VH", "VL": "B1 VL with L29P, S55K", "notes": "one-arm IgG as m2"}, "B12": {"name": "GLS3000 L33P (antibody, name in Kabat numbering, V domains shown)", "VH": "B1 VH", "VL": "B1 VL with L38P, S55K", "notes": "one-arm IgG as m2"}, "B13": {"name": "GLS3000 L33I (antibody, name in Kabat numbering, V domains shown)", "VH": "B1 VH", "VL": "B1 VL with L38I, S55K", "notes": "one-arm IgG as m2"}, "B14": {"name": "GLS3000 N28M (antibody, name in Kabat numbering, V domains shown)", "VH": "B1 VH", "VL": "B1 VL with N33M, S55K", "notes": "one-arm IgG as m2"}, "B15": {"name": "GLS3000 N28K (antibody, name in Kabat numbering, V domains shown)", "VH": "B1 VH", "VL": "B1 VL with N33K, S55K", "notes": "one-arm IgG as m2"}, "B16": {"name": "GLS3000 N28L (antibody, name in Kabat numbering, V domains shown)", "VH": "B1 VH", "VL": "B1 VL with N33L, S55K", "notes": "one-arm IgG as m2"}, "B17": {"name": "GLS3000 K50T (antibody, name in Kabat numbering, V domains shown)", "VH": "B1 VH", "VL": "B1 VL with S55T", "notes": "one-arm IgG as m2"}, "B18": {"name": "GLS3000 N28F (antibody, name in Kabat numbering, V domains shown)", "VH": "B1 VH", "VL": "B1 VL with N33F, S55K", "notes": "one-arm IgG as m2"}, "B19": {"name": "GLS3000 L33A (antibody, name in Kabat numbering, V domains shown)", "VH": "B1 VH", "VL": "B1 VL with L38A, S55K", "notes": "one-arm IgG as m2"}, "B20": {"name": "GLS3000 L33F (antibody, name in Kabat numbering, V domains shown)", "VH": "B1 VH", "VL": "B1 VL with L38F, S55K", "notes": "one-arm IgG as m2"}, "B21": {"name": "GLS3000 K107E (antibody, name in Kabat numbering, V domains shown)", "VH": "B1 VH", "VL": "B1 VL with S55K, K112E", "notes": "one-arm IgG as m2"}, "B22": {"name": "GLS3000 L27bE (antibody, name in Kabat numbering, V domains shown)", "VH": "B1 VH", "VL": "B1 VL with L29E, S55K", "notes": "one-arm IgG as m2"}, "B23": {"name": "GLS3000 L33M (antibody, name in Kabat numbering, V domains shown)", "VH": "B1 VH", "VL": "B1 VL with L38M, S55K", "notes": "one-arm IgG as m2"}, "B24": {"name": "GLS3000 L27bM (antibody, name in Kabat numbering, V domains shown)", "VH": "B1 VH", "VL": "B1 VL with L29M, S55K", "notes": "one-arm IgG as m2"}, "B25": {"name": "GLS3000 L27bW (antibody, name in Kabat numbering, V domains shown)", "VH": "B1 VH", "VL": "B1 VL with L29W, S55K", "notes": "one-arm IgG as m2"}, "B26": {"name": "GLS3000 N28H (antibody, name in Kabat numbering, V domains shown)", "VH": "B1 VH", "VL": "B1 VL with N33H, S55K", "notes": "one-arm IgG as m2"}, "B27": {"name": "GLS3000 L27bS (antibody, name in Kabat numbering, V domains shown)", "VH": "B1 VH", "VL": "B1 VL with L29S, S55K", "notes": "one-arm IgG as m2"}, "B28": {"name": "GLS3000 L27bD (antibody, name in Kabat numbering, V domains shown)", "VH": "B1 VH", "VL": "B1 VL with L29D, S55K", "notes": "one-arm IgG as m2"}, "B29": {"name": "GLS3000 L27bI (antibody, name in Kabat numbering, V domains shown)", "VH": "B1 VH", "VL": "B1 VL with L29I, S55K", "notes": "one-arm IgG as m2"}, "B30": {"name": "GLS3000 L27bY (antibody, name in Kabat numbering, V domains shown)", "VH": "B1 VH", "VL": "B1 VL with L29Y, S55K", "notes": "one-arm IgG as m2"}, "B31": {"name": "GLS3000 K74T (antibody, name in Kabat numbering, V domains shown)", "VH": "B1 VH", "VL": "B1 VL with S55K, K79T", "notes": "one-arm IgG as m2"}, "B32": {"name": "GLS3000 L33D (antibody, name in Kabat numbering, V domains shown)", "VH": "B1 VH", "VL": "B1 VL with L38D, S55K", "notes": "one-arm IgG as m2"}, "B33": {"name": "GLS3000 N28I (antibody, name in Kabat numbering, V domains shown)", "VH": "B1 VH", "VL": "B1 VL with N33I, S55K", "notes": "one-arm IgG as m2"}}, "note": "Residue numbers refer to the chain shown, from its start."}
{"target": "T1, CD3 epsilon homodimer protein (UniProt P07766 23-126)", "T1 construct": "also called CD3 (CD3 epsilon)", "T1 sequence (P07766 23-126)": "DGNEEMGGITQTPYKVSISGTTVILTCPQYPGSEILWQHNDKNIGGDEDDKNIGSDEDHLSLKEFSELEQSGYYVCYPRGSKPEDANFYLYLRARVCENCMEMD", "test": "SPR Biacore T200, CD3e homodimer on chip, vs unaltered GLS3000 antibody"}
{"binder": "B1", "ratio of amounts bound (Z=Y/X)": 0.23}
{"binder": "B2", "ratio of amounts bound (Z=Y/X)": 0.25}
{"binder": "B3", "ratio of amounts bound (Z=Y/X)": 1.12}
{"binder": "B4", "ratio of amounts bound (Z=Y/X)": 0.19}
{"binder": "B5", "ratio of amounts bound (Z=Y/X)": 1.05}
{"binder": "B6", "ratio of amounts bound (Z=Y/X)": 0.42}
{"binder": "B7", "ratio of amounts bound (Z=Y/X)": 0.46}
{"binder": "B8", "ratio of amounts bound (Z=Y/X)": 0.72}
{"binder": "B9", "ratio of amounts bound (Z=Y/X)": 0.4}
{"binder": "B10", "ratio of amounts bound (Z=Y/X)": 0.24}
{"binder": "B11", "ratio of amounts bound (Z=Y/X)": 0.91}
{"binder": "B12", "ratio of amounts bound (Z=Y/X)": 0.3}
{"binder": "B13", "ratio of amounts bound (Z=Y/X)": 0.83}
{"binder": "B14", "ratio of amounts bound (Z=Y/X)": 0.39}
{"binder": "B15", "ratio of amounts bound (Z=Y/X)": 0.44}
{"binder": "B16", "ratio of amounts bound (Z=Y/X)": 0.39}
{"binder": "B17", "ratio of amounts bound (Z=Y/X)": 0.19}
{"binder": "B18", "ratio of amounts bound (Z=Y/X)": 0.46}
{"binder": "B19", "ratio of amounts bound (Z=Y/X)": 0.85}
{"binder": "B20", "ratio of amounts bound (Z=Y/X)": 0.78}
{"binder": "B21", "ratio of amounts bound (Z=Y/X)": 0.94}
{"binder": "B22", "ratio of amounts bound (Z=Y/X)": 0.17}
{"binder": "B23", "ratio of amounts bound (Z=Y/X)": 0.93}
{"binder": "B24", "ratio of amounts bound (Z=Y/X)": 0.71}
{"binder": "B25", "ratio of amounts bound (Z=Y/X)": 0.26}
{"binder": "B26", "ratio of amounts bound (Z=Y/X)": 0.42}
{"binder": "B27", "ratio of amounts bound (Z=Y/X)": 0.71}
{"binder": "B28", "ratio of amounts bound (Z=Y/X)": 0.17}
{"binder": "B29", "ratio of amounts bound (Z=Y/X)": 1.19}
{"binder": "B30", "ratio of amounts bound (Z=Y/X)": 0.25}
{"binder": "B31", "ratio of amounts bound (Z=Y/X)": 0.84}
{"binder": "B32", "ratio of amounts bound (Z=Y/X)": 0.17}
{"binder": "B33", "ratio of amounts bound (Z=Y/X)": 0.44}
